Laboratory results as given in patent US20140234868A1, “USE FOR GLYCOLIPOPROTEIN GINTONIN, ISOLATED AND IDENTIFIED FROM GINSENG, AS A NATURAL MEDICAL-PLANT DERIVED LIGAND” (KONKUK UNIVERSITY INDUSTRIAL COOPERATION CORP., priority 2011, published 2014).

Assays:
LPA5 receptor = LPA5 receptor (Homo sapiens, UniProt Q9H1C0); assay: Intracellular free Ca2+ (Fura-2AM) in LPA5-expressing B103 cells; assay type: cell-based; parameters: host or cells: B103 rat neuroblastoma cells
Source text: LPA family receptors are endogenous to cells of most organs. B103 rat neuroblastoma cells, known as LPA receptor-null cells (Valentine et al., Biochim Biophys Acta 1780. 597-605) were transiently transfected with a plasmid (vector) carrying one of genes coding for LPA1(edg-2), LPA2(edg-4), LPA3(edg-7), LPA4, LPA5 and LPA6 receptors or a plasmid carrying none of them (empty vector). Two or three days after transfection, the cells are suspended, and made permeable. Then, the permeable cells are treated with Fura-2AM, a fluorescent dye binding to calcium, and then with gintonin, followed by spectrofluorephotometry to examine whether gintonin induces an increase in intracellular free Ca^2+ level. […]

[1] = molecular target: T1, mutant W4.64A LPA3 receptor (Homo sapiens, UniProt Q9UBY5, W167A); assay: Intracellular Ca2+ in B103 cells with mutant W4.64A LPA3 receptor; assay type: cell-based; conditions: W4.64A LPA3 receptor-transfected B103 cells
T1 construct: expressed in transfected cells; host or cells: B103 rat neuroblastoma cells
T1 sequence (Q9UBY5 1-353 W167A): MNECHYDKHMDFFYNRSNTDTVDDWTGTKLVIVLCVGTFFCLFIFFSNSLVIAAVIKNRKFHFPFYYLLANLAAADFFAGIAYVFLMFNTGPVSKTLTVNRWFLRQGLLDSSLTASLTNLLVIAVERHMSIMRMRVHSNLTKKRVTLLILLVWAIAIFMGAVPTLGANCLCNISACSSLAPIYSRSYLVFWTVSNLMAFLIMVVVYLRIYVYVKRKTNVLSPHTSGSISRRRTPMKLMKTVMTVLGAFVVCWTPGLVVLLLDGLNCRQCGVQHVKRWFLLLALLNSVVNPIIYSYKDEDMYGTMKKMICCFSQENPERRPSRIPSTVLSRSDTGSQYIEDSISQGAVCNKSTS
Source text: That is, LPA receptors have specific amino acid residues, known as binding sites, which are responsible for interaction with LPA, and the binding of LPA to the specific amino acids starts to exert the function. This Example was configured to examine a change in the gintonin-induced intracellular calcium increase through LPA receptor activation in LPA3 receptor-expressing cells when specific amino acids of the LPA binding site in LPA receptors were mutated.
To this end, a mutant LPA receptor in which Arg3.28, known as a common LPA binding site of LPA1-LPA3 receptors, was mutated as Arg3.28Ala (that is, Arg is substituted by Ala; R3.28A) or Trp4.64, known as an LPA-binding site of LPA3 receptor was mutated as Trp4.64Ala (that is, Tip is substituted by Ala; W4.64A) (Valentine et al., J. Biol. Chem. 283, 12175-12187, 2008) was transfected to B103 cells which were then tested for the action of gintonin, in comparison with cells transfected with the wild-type. […] From the result, it is henceforth understood that the gintonin-triggered LPA receptor activation is achieved by interaction with the LPA binding sites of LPA receptors and that gintonin occupies the LPA binding sites to activate LPA receptors.

Chain of LPA5 receptor (Q9H1C0 whole entry): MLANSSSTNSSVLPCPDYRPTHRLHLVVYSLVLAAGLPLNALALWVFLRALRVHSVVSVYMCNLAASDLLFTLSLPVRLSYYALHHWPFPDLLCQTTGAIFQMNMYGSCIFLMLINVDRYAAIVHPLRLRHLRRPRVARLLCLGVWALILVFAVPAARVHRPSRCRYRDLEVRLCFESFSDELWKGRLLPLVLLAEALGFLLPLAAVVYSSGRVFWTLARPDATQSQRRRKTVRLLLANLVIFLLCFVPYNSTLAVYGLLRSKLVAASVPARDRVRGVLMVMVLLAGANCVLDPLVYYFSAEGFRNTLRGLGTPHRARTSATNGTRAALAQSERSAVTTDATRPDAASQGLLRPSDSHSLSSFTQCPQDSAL

B1: gintonin: ginseng-derived glycolipoprotein; structural protein of ginseng major latex-like protein (MLP151) and ribonuclease-like storage proteins; crude gintonin used in tests (protein)
chain 1: MGLTGKLICQTGIKSDGDVFHELFGTRPHHVPNITPANIQGCDLHEGEFGKVGSVVIWNYSIDGNAMIAKEEIVAIDEEDKSVTFKVVEGHLFEEFKSIVFSVHVDTKGEDNLVTWSIDYEKLNESVKDPTSYLDFLLSVTRDIEAHHLPK
chain 2: RSDYPWAMFALRLQWPAGFCEVNNACDTKSLLNTFTIHGLYPYNAKGTPALYCDGTAFDVNSVSDFLAEMHLAWPSHETNTEDIQFWEHEWKKHGRCSEALLKQTDYFRTALAFRKAFDIVGLLNQEGIYPNNDLYRPKMIKEAIKKHLNAVPEIDFTKNENSEYVLTDINVCVNQQATRFVDCPTDDATDDYRLKFVRLPSKMKFADPRTNSII
EC50 (LPA5 receptor; LPA5 receptor, B103 cells, read-out: EC50, LPA receptor-mediated intracellular calcium increase): 0.046 ± 0.003 nM
increase in intracellular calcium level (LPA5 receptor; gintonin 1 μg/ml, LPA5-expressing B103 cells): 297.5 ± 21.8 µM
gintonin-induced intracellular calcium increase vs wild-type [1]: greatly reduced
